Reference: patent publication US20260085129A1 (ECO ANIMAL HEALTH, published 2026)

What was measured:
[1] = molecular target: T1, porcine CD163 with deletion of SRCR domain 5, on pPAMΔ5 cells (porcine, UniProt Q2VL90 47-1115); assay: P.E. binding FACS on pPAMΔ5 cells
T1 construct: also called pPAMΔ5 domain cells; pPAMΔ5 WT cells
T1 sequence: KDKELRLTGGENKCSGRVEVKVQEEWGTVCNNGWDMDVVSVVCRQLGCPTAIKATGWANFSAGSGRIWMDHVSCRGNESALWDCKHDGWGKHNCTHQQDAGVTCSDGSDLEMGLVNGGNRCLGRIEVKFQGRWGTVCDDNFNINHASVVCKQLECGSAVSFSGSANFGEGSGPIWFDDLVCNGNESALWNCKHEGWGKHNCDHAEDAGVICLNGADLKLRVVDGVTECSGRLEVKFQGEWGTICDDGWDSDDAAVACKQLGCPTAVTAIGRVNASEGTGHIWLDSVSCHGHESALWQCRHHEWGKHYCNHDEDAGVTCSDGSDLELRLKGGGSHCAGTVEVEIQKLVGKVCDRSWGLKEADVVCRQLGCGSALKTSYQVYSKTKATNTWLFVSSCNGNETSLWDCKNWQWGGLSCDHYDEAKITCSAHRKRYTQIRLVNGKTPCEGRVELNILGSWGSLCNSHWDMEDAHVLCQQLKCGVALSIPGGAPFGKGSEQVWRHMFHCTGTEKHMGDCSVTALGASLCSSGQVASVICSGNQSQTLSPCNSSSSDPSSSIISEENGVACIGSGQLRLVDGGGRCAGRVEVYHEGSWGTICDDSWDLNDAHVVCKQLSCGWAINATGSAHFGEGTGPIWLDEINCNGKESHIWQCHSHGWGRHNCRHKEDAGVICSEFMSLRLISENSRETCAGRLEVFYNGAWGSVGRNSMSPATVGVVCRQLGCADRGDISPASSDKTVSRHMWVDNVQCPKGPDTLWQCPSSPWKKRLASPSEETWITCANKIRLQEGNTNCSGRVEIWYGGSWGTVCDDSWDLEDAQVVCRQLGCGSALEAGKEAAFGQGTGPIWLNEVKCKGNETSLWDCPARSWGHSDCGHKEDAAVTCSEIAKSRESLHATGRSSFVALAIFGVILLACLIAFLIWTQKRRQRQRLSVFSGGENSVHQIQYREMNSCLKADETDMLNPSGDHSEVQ
Protocol: Periplasmic Extract (P.E) from the selected clones were incubated with anti-c-myc antibody (Roche; Cat. nr. 11667203001), specific to the c-myc tag present in the soluble VHH, for 30 minutes with agitation at room temperature (RT). The mix (P.E+anti-c-myc antibody) was added to the pPAM WT or pPAMΔ5 domain (cells with deletion of SRCR domain 5) and incubated for 60 min at 4° C. with gentle shaking.
Cells were washed 3× with 150 μl/well of FACS Buffer and incubated with 50 μl/well of the secondary antibody GAM-APC for 30 min at 4° C. and protected from the light, with shaking.

pCD163-SRCR1-9-huFc = molecular target: T2, pCD163-SRCR1-9-huFc (porcine, UniProt Q2VL90 51-1028); assay: Biacore 3000 SPR, antigen amine-coupled on CM5 chip, pH 7.4
T2 construct: Limits 51-1028 are those the description gives for CD163-SRCR1-9; also called porcine CD163 SRCR1 to SRCR9 (no PST2) with human Fc; soluble CD163; not shown: human Fc (huFc)
T2 sequence: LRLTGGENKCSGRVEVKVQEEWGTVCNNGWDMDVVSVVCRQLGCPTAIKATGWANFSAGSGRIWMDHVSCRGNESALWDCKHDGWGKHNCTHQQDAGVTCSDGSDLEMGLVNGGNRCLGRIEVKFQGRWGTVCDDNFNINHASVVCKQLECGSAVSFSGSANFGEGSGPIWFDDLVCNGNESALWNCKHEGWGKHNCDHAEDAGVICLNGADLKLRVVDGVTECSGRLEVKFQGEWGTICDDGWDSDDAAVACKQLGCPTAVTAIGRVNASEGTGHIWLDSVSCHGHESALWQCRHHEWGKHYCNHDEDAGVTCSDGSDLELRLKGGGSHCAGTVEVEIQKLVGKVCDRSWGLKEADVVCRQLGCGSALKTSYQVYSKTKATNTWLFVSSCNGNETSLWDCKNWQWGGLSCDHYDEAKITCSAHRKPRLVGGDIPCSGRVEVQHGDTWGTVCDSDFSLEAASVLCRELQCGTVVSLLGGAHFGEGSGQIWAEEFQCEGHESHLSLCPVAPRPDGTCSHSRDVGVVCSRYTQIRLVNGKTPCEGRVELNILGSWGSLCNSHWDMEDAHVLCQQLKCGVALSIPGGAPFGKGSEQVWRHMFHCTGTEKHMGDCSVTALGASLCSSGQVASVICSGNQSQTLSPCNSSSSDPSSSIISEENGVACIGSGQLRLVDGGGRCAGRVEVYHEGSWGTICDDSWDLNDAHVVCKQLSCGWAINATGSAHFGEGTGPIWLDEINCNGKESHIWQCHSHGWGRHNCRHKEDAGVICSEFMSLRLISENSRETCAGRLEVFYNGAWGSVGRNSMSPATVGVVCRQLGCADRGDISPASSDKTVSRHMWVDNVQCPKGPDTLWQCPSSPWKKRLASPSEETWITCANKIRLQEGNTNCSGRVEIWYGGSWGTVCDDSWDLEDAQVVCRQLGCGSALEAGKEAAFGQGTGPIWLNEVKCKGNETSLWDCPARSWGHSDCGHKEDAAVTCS

B1: Clone 39-H17B11 VHH antibody (VHH)
VHH: QVQLVESGGGLVQAGGSLRLSCAASGRTFSSYAMGWFRQTPGKDREFVARIGWTGGTTIYADSVKGRFTISRDNAKNTVYLQMNSLKPEDTAVYYCAADQAGWRTAGVRNTYEYDYWGQGTQVTVSS
notes: Llama single domain antibody; also called clone 17B11; not shown: tags: c-myc tag on the soluble VHH in periplasmic extracts; FLAG and His tags on the purified VHH
[1]
  binding result: no binding
pCD163-SRCR1-9-huFc
  binding result: no binding (tested: 200 nM (highest VHH concentration))
